The values that follow come from PMC10416611, “Overexpression of AHL proteins enhances root hair production by altering the transcription of RHD6‐downstream genes”.

For one data set, the target named is T1, MBP-AHL28 (Arabidopsis thaliana, UniProt Q9M9R4 1-206).
T1 sequence: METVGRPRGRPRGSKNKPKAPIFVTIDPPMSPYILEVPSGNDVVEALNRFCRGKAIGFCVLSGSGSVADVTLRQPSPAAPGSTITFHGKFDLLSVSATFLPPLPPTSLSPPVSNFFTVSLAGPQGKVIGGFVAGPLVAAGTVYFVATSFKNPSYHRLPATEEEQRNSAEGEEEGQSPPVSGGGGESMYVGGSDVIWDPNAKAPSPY
The data set is described as follows: EMSA; 1.5 ug protein, 1 uM probe; reduced by unlabeled probe; EMSA as in Sun et al. 2016; buffer, salt, pH and temperature not given; FAM-labeled probe 1 uM (Fig. S6). To be noted: protein: recombinant; tags: N-terminal MBP; label: FAM; blunt. (In EMSA bound probe runs differently from free probe, usually more slowly.)

For the next data set, the target named is MBP-AHL17-His (Arabidopsis thaliana, UniProt Q9LTA2 1-276). Nature of the data set: EMSA; reduced by unlabeled probe; EMSA as in Sun et al. 2016; buffer, salt, pH and temperature not given; FAM-labeled probe 1 uM (Fig. S6). Particulars: protein: recombinant; tags: N-terminal MBP; C-terminal 6xHis; label: FAM; blunt.

B1: PRP3 promoter probe (dsDNA)
DNA 1: GTCCAAATATTTATATTATAAGATACATTTTAATATTTAATTATGATTTAGTAGA
DNA 2: TCTACTAAATCATAATTAAATATTAAAATGTATCTTATAATATAAATATTTGGAC
Regarding B1, the binding result with MBP-AHL28 and with MBP-AHL17-His was “binds” throughout.

B2: COW1 promoter probe (dsDNA)
DNA 1: TTTCTCTCATATTTAATTTATTTACTTAGAAA
DNA 2: TTTCTAAGTAAATAAATTAAATATGAGAGAAA
Regarding B2, the binding result in the data set with MBP-AHL28 and with MBP-AHL17-His was “binds” throughout.
